Source: patent publication US8663964B2, “Methods of treating human papillomavirus” (Tamir Biotechnology, Inc., priority 2011, dated 2014)

Key:
HPV type 11 = experiment: quantitative reverse transcriptase PCR (QRT-PCR) antiviral assay against HPV type 11 in A-431 cells; assay type: cell-based, type 11 human papillomavirus; conditions: HPV-11 in A-431 cells
Protocol: To evaluate the activity of the tested RNases against type 11 HPV infections, the following quantitative PCR assay was used:
Solutions of the tested RNases were prepared in cell culture medium without use of dimethyl sulfoxide (“DMSO”). DMSO is unnecessary because the tested RNases are water-soluble.
HPV is an DNA virus. Antiviral activity against HPV type 11 was evaluated using a quantitative reverse transcriptase PCR (QRT-PCR) assay. Initially, on Day 1, 1 million A-431 cells were placed in 6-well dishes in Dulbecco's Modified Eagle Medium (“DMEM”) supplemented with 10% fetal bovine serum (“FBS”). The cells were then incubated for two days at 37° C.
After this incubation period, on day 2 replicate aliquots of HPV-11 were added to each non-control well, representing a multiplicity of infection (“MOI”) of 150 particles per cell in DMEM containing 2.5% FBS.
One day later, i.e. on day 3, DMEM with 10% FBS was added to each cell culture well.
One day later, i.e. on day 4, the tested compounds were added to the non-control cell culture wells. Control wells received media alone, or the vehicle used to dilute the tested compounds. Cidofovir diluted to 300 ug/ml was used as a positive control. […]
Finally, one day later, on […], QRT-PCR was carried out to quantitate the proportion of viral E1^E4 transcripts and a cellular reference RNA for the TATA-binding protein (“TBP”). […]

cancer cells = conditions: because of enzymatic activity against RNA; cited from earlier work
[1] = cited from earlier work

Which “activity against type 11 HPV (as seen in FIG. 1; SI = CC50/EC50)” value (HPV type 11) does the source give for “Val11, Asn20, Arg103—Ranpirnase ['805 variant]” here?
The value was “extraordinarily active”.

What about the “cytotoxicity to cancer cells” value (cancer cells) of the same molecule?
The value was “cytotoxic to certain cancer cells”.

B1: ranpirnase (protein, UniProt P22069 1-104, looked up)
Protein P-30: QDWLTFQKKHITNTRDVDCDNIMSTNLFHCKDKNTFIYSRPEPVKAICKGIIASKNVLTTSEFYLSDCNVTSRPCKYKLKKSTNKFCVTCENQAPVHFVGVGSC
notes: An RNase disclosed and claimed in U.S. Pat. No. 5,559,212; registered trademark ONCONASE
With B1 as the molecule, how does the “activity against type 11 HPV (as seen in FIG. 1; SI = CC50/EC50)” value (HPV type 11) read?
The value was “extraordinarily active”.

And the “cytotoxicity to cancer cells” value (cancer cells)?
Its value is “cytotoxic to cancer cells”.

And the “toxicity and tolerability in humans” value [1]?
Its value is “non-toxic and well-tolerated”.
